Data from patent US20090166224A1.

Key:
[1] = target: ALPHA-2-HS-GLYCOPROTEIN (human) (UniProt P02765); experiment: untreated sample on M-LAC column, displacer fraction, peak area of peptide …
[2] = target: Alpha-1-acid-glycoprotein (human) (UniProt P02763); experiment: as above
[3] = target: Beta-2-glycoprotein (human) (UniProt P02749); experiment: as above
[4] = target: HAPTOGLOBIN-2 (human) (UniProt P00738); experiment: as above
[5] = target: SERO… (human) (UniProt P02787); experiment: as above
[6] = target: Alpha-1-acid-glycoprotein in neuraminidase-treated serum (human) (UniProt P02763); experiment: neuraminidized sample on M-LAC column, displacer fraction, peak area of peptide …
Sequence of Alpha-1-acid-glycoprotein in neuraminidase-treated serum (human) (P02763 19-201 limits assumed): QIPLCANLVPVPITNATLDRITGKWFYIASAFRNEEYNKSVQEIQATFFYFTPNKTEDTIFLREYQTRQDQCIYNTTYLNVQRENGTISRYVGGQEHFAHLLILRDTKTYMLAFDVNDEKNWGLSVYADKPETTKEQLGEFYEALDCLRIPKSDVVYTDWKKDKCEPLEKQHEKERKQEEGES

[7] = target: Alpha-2HS-glycoprotein in neuraminidase-treated serum (human) (UniProt P02765); experiment: as above
Sequence of Alpha-2HS-glycoprotein in neuraminidase-treated serum (human) (P02765 19-300 limits assumed, chain 1 of 2): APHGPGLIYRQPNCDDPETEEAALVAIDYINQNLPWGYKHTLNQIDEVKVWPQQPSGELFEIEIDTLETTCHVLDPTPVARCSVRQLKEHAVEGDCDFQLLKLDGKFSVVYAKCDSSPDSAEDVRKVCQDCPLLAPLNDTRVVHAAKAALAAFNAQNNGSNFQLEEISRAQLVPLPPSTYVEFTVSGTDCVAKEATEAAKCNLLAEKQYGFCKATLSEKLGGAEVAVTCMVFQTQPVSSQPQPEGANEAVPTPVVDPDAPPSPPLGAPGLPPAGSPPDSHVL
Sequence of Alpha-2HS-glycoprotein in neuraminidase-treated serum (human) (P02765 341-367 limits assumed, chain 2 of 2): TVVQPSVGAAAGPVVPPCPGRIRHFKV

[8] = target: Beta-2-glycoprotein in neuraminidase-treated serum (human) (UniProt P02749); experiment: as above
Sequence of Beta-2-glycoprotein in neuraminidase-treated serum (human) (P02749 20-345 limits assumed): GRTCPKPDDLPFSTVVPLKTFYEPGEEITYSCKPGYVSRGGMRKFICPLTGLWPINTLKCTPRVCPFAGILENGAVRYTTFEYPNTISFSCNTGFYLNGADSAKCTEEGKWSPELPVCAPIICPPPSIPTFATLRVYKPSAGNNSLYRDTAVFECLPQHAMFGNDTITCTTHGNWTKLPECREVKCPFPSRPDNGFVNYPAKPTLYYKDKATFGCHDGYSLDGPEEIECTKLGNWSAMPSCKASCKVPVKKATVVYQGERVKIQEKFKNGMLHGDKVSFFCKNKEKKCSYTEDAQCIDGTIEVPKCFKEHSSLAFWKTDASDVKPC

[9] = target: ALPHA-2-HS-GLYCOPROTEIN (human) (UniProt P02765); experiment: human serum on M-LAC column, displacer fraction, LC-MS/MS; smaller rank = more abundant
[10] = target: APOLIPOPROTEIN A-I (human) (UniProt P02647); experiment: as above
Sequence of UniProt P02647 (P02647 25-267 limits assumed): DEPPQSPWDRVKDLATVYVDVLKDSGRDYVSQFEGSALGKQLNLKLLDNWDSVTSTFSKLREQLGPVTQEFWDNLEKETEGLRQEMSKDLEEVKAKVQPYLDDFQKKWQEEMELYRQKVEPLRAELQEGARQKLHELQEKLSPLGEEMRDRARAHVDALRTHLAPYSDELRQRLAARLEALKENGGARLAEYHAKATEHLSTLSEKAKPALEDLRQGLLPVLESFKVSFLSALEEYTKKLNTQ

[11] = target: Alpha-1-acid-glycoprotein (human) (UniProt P02763); experiment: as above
[12] = target: Beta-2-glycoprotein (human) (UniProt P02749); experiment: as above
[13] = target: CERULOPLASMIN (human) (UniProt P00450); experiment: as above
Sequence of UniProt P00450 (P00450 20-1065 limits assumed): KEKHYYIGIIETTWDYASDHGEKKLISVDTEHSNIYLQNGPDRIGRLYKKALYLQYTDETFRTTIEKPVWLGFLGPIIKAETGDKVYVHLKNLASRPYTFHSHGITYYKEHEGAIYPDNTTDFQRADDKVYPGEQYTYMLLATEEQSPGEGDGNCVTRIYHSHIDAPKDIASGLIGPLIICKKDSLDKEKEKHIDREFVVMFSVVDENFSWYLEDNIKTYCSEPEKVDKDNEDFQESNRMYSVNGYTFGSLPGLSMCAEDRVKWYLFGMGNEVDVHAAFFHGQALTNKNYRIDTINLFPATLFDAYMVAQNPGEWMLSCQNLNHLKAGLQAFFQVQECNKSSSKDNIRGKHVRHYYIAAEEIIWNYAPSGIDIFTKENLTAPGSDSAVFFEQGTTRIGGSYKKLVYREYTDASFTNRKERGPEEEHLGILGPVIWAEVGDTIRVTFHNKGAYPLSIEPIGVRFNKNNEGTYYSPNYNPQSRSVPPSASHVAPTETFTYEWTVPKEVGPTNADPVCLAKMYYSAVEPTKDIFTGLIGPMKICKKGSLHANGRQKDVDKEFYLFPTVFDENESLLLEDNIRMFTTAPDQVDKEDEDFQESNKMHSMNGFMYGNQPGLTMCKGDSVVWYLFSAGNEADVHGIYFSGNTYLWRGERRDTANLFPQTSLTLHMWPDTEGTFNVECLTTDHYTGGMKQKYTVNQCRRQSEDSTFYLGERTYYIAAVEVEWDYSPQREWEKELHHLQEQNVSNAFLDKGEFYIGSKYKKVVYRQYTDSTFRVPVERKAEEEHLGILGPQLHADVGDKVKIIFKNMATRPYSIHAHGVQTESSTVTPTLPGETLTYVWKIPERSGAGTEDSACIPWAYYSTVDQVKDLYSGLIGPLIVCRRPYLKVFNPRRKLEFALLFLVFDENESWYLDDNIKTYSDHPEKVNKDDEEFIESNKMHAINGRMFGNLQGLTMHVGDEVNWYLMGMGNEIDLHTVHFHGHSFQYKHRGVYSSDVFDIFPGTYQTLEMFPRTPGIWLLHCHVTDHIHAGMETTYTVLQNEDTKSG

[14] = target: HAPTOGLOBIN-2 (human) (UniProt P00738); experiment: as above
[15] = target: SERO… (human) (UniProt P02787); experiment: as above
[16] = target: ALPHA-2-HS-GLYCOPROTEIN (human) (UniProt P02765); experiment: human serum on M-LAC column, displacer fraction, extracted ion chromatogram of peptide …
[17] = target: Alpha-1-acid-glycoprotein (human) (UniProt P02763); experiment: as above
[18] = target: Beta-2-glycoprotein (human) (UniProt P02749); experiment: as above
[19] = target: HAPTOGLOBIN-2 (human) (UniProt P00738); experiment: as above
[20] = target: SERO… (human) (UniProt P02787); experiment: as above
[21] = target: APOLIPOPROTEIN A-I (human) (UniProt P02647); experiment: as above
[22] = target: CERULOPLASMIN (human) (UniProt P00450); experiment: as above
[23] = target: Alpha-1-acid-glycoprotein in fucosidase-treated serum (human) (UniProt P02763); experiment: fucosidase-treated serum on M-LAC column, displacer fraction, LC-MS/MS; smaller rank = more abundant
Sequence of Alpha-1-acid-glycoprotein in fucosidase-treated serum (human) (P02763 19-201 limits assumed): as the sequence (P02763 19-201 limits assumed) above

[24] = target: Apolipoprotein A-I in fucosidase-treated serum (human) (UniProt P02647); experiment: as above
Sequence of Apolipoprotein A-I in fucosidase-treated serum (human) (P02647 25-267 limits assumed): as the sequence (P02647 25-267 limits assumed) above

[25] = target: Ceruloplasmin in fucosidase-treated serum (human) (UniProt P00450); experiment: as above
Sequence of Ceruloplasmin in fucosidase-treated serum (human) (P00450 20-1065 limits assumed): as the sequence (P00450 20-1065 limits assumed) above

[26] = target: Haptoglobin in fucosidase-treated serum (human) (UniProt P00738); experiment: as above
Sequence of Haptoglobin in fucosidase-treated serum (human) (P00738 19-406 limits assumed): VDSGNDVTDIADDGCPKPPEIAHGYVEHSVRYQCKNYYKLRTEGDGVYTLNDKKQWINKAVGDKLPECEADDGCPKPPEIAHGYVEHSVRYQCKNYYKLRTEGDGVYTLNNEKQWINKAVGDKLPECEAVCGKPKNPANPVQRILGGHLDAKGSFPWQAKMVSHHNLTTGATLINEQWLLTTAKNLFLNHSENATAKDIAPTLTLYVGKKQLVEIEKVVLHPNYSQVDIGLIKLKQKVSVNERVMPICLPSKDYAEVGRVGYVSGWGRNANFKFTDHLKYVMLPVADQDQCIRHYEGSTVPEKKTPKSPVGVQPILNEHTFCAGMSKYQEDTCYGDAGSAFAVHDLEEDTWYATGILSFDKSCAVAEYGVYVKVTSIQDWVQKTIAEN

[27] = target: … ZONE PROTEIN (human) (UniProt P20742); experiment: human serum on M-LAC column, displacer fraction, extracted ion chromatogram of peptide … (so in the source)
[28] = target: Alpha-1-acid-glycoprotein in neuraminidase-treated serum (human) (UniProt P02763); experiment: neuraminidase-treated serum on M-LAC column, displacer fraction, LC-MS/MS; smaller rank = more abundant
[29] = target: Haptoglobin in neuraminidase-treated serum (human) (UniProt P00738); experiment: as above
[30] = target: Alpha-1-acid-glycoprotein in neuraminidase-treated serum (human) (UniProt P02763); experiment: neuraminidase-treated serum on M-LAC column, displacer fraction, extracted ion chromatogram of peptide …
[31] = target: Alpha-2HS-glycoprotein in neuraminidase-treated serum (human) (UniProt P02765); experiment: as above
[32] = target: Beta-2-glycoprotein in neuraminidase-treated serum (human) (UniProt P02749); experiment: as above
[33] = target: Haptoglobin in neuraminidase-treated serum (human) (UniProt P00738); experiment: as above
[34] = target: HAPTOGLOBIN-2 (human) (UniProt P00738); experiment: human serum on Con A/WGA/Jacalin column, lectin-specific displacer fraction, LC-MS/MS; grade = SEQUEST rank group (+ = ranks 1-5, ++++ = 16-20)

Sequence of Alpha-1-acid-glycoprotein (human) (P02763 19-201 limits assumed): as the sequence (P02763 19-201 limits assumed) above
Sequence of Beta-2-glycoprotein (human) (P02749 20-345 limits assumed): as the sequence (P02749 20-345 limits assumed) above
Sequence of UniProt P02765 (P02765 19-300 limits assumed, chain 1 of 2): as the sequence (P02765 19-300 limits assumed, chain 1 of 2) above

peptide peak area in displacer fraction [1]	peptide peak area in displacer fraction [2]	peptide peak area in displacer fraction [3]	peptide peak area in displacer fraction [4]	peptide peak area in displacer fraction [5]	peptide peak area in displacer fraction [6]	peptide peak area in displacer fraction [7]	peptide peak area in displacer fraction [8]	SEQUEST rank in displacer fraction [9]	SEQUEST rank in displacer fraction [10]	SEQUEST rank in displacer fraction [11]	SEQUEST rank in displacer fraction [12]	SEQUEST rank in displacer fraction [13]	SEQUEST rank in displacer fraction [14]	SEQUEST rank in displacer fraction [15]	peptide peak area in displacer fraction [16]	peptide peak area in displacer fraction [17]	peptide peak area in displacer fraction [18]	peptide peak area in displacer fraction [19]	peptide peak area in displacer fraction ([20]; peptide at M/Z 530.2)	Substance	other results
4	9.7	2.6	10.1	20	12.3	7.4	3.8	14	4	21	20	24	9	2	4e+06 counts	9.7e+06 counts	2.6e+06 counts	1e+07 counts	1.9e+07 counts	Jacalin lectin, agarose-bound (from UniProt P18670 1-133; P18671 1-20)	peptide peak area in displacer fraction ([20]; peptide at M/Z 790.1): 7e+06 counts; peptide peak area in displacer fraction [21]: 4e+07 counts; peptide peak area in displacer fraction [22]: 2e+06 counts; SEQUEST rank in displacer fraction [23]: 19; SEQUEST rank in displacer fraction [24]: 5; SEQUEST rank in displacer fraction [25]: 6; SEQUEST rank in displacer fraction [26]: 7; peptide peak area in displacer fraction [27]: 0 counts; SEQUEST rank in displacer fraction [28]: 27; SEQUEST rank in displacer fraction [29]: 9; peptide peak area in displacer fraction [30]: 1.2e+07 counts; peptide peak area in displacer fraction [31]: 7.4e+06 counts; peptide peak area in displacer fraction [32]: 3.8e+06 counts; peptide peak area in displacer fraction [33]: 1.3e+07 counts; SEQUEST ranking (relative abundance in the Jacalin displacement fraction) [34]: 11 to 15 rank
1.7	129	1.8	236	8.1	0	0.9	0	81	10	7	52	8	4	19	1.7e+06 counts	1.29e+08 counts	1.8e+06 counts	2.36e+08 counts	7.7e+06 counts	wheat germ agglutinin (WGA), agarose-bound (from UniProt P10968 27-197)	peptide peak area in displacer fraction ([20]; peptide at M/Z 790.1): 5e+06 counts; peptide peak area in displacer fraction [21]: 6e+07 counts; peptide peak area in displacer fraction [22]: 9.1e+06 counts; SEQUEST rank in displacer fraction [23]: 9; SEQUEST rank in displacer fraction [24]: 24; SEQUEST rank in displacer fraction [25]: 28; SEQUEST rank in displacer fraction [26]: 2; peptide peak area in displacer fraction [27]: 1.1e+07 counts; SEQUEST rank in displacer fraction [28]: 23; SEQUEST rank in displacer fraction [29]: 2; peptide peak area in displacer fraction [30]: 0 counts; peptide peak area in displacer fraction [31]: 900000 counts; peptide peak area in displacer fraction [32]: 0 counts; peptide peak area in displacer fraction [33]: 1.63e+08 counts; SEQUEST ranking (relative abundance in the WGA displacement fraction) [34]: 1 to 5 rank

Substance	peptide peak area in displacer fraction [1]	peptide peak area in displacer fraction [2]	peptide peak area in displacer fraction [3]	peptide peak area in displacer fraction [4]	peptide peak area in displacer fraction [5]	peptide peak area in displacer fraction [6]	peptide peak area in displacer fraction [7]	peptide peak area in displacer fraction [8]	SEQUEST rank in displacer fraction [9]	SEQUEST rank in displacer fraction [10]	SEQUEST rank in displacer fraction [11]	SEQUEST rank in displacer fraction [12]	SEQUEST rank in displacer fraction [13]	SEQUEST rank in displacer fraction [14]	SEQUEST rank in displacer fraction [15]	peptide peak area in displacer fraction [16]	peptide peak area in displacer fraction [17]	peptide peak area in displacer fraction [18]	peptide peak area in displacer fraction [19]	peptide peak area in displacer fraction ([20]; peptide at M/Z 530.2)	other results
Concanavalin A (Con A), agarose-bound (from UniProt P02866 30-281)	2.6	9.2	3.5	39.3	23	10.7	2.6	8.4	32	19	33	20	14	7	2	2.6e+06 counts	9.2e+06 counts	3.5e+06 counts	3.9e+07 counts	2e+07 counts	peptide peak area in displacer fraction ([20]; peptide at M/Z 790.1): 7.8e+06 counts; peptide peak area in displacer fraction [21]: 1.2e+07 counts; peptide peak area in displacer fraction [22]: 7.8e+06 counts; SEQUEST rank in displacer fraction [23]: 38; SEQUEST rank in displacer fraction [24]: 12; SEQUEST rank in displacer fraction [25]: 8; SEQUEST rank in displacer fraction [26]: 5; peptide peak area in displacer fraction [27]: 6.6e+06 counts; SEQUEST rank in displacer fraction [28]: 96; SEQUEST rank in displacer fraction [29]: 7; peptide peak area in displacer fraction [30]: 1.1e+07 counts; peptide peak area in displacer fraction [31]: 2.6e+06 counts; peptide peak area in displacer fraction [32]: 8.4e+06 counts; peptide peak area in displacer fraction [33]: 4.7e+07 counts; SEQUEST ranking (relative abundance in the Con A displacement fraction) [34]: 6 to 10 rank
